Here are results for 2 molecules from patent EP4442275A1, “ANTI-TYPE II COLLAGEN ANTIBODIES” (ModiQuest B.V., priority 2023, dated 2024).

Entries after “also recorded” stand apart in the source; their conditions may differ.

Test [1] deals with T1, human cartilage explants (Homo sapiens, UniProt P02458).
T1 construct: From surgical waste material obtained after total knee arthroplasty; from tissue; host or cells: human articular cartilage from joint replacement surgery of OA patients
In words: Binding of 111In-labeled DTPA-conjugated antibodies to human cartilage explants (gamma counting). Particulars: Figure 8.

A further test has as its target T2, human cartilage (Homo sapiens, UniProt P02458).
T2 construct: From surgical waste material obtained after total knee arthroplasty; from tissue; host or cells: human articular cartilage from joint replacement surgery of OA patients
In words: Ex vivo binding to human cartilage with different stages of OA-induced damage (Odyssey CLX imaging). The method, then:
From surgical waste material obtained after total knee arthroplasty (Patient number SMK1180), human cartilage from the macroscopically preserved, medium damage and severe damaged regions were isolated with a surgical blade. Human cartilage explants were overnight incubated in DMEM/F12 without FBS supplemented with 10.000 U/mL penicillin/streptomycin at 37°C with 5% CO2. Punches (6 mm) were generated using a biopsy punch. Three explants/damage condition were divided over sterile FACS tubes and exposed 4 µg/ml DTPA-IrDye 800CW isotype (2.201a) (substitution ratio IrDye 800CW= 1.54) or DTPA-IrDye 800CW anti-COLL II antibody (MQ4.112 hz3_1) (substitution ratio IrDye 800CW= 1.83) in DMEM/F12 media supplemented with 0.5% BSA (final volume was 1 ml) for 4 H on a roller at 37°C. After this incubation the samples were transferred to 50 ml falcon tubes (1 tube/condition, 3 punches/tube) and washed with PBS (50 ml) at 37°C (1x 30 min), followed by an o/n wash with PBS on a shaker at 4°C.
The explants were transferred to the bottom of wells of a 96-well plate to measure the cartilage associated fluorescence with the Odyssey CLX near infrared imaging system (Figure 11). The cartilage was fixed in formalin for 4 H and thereafter transferred to 70% ethanol until processed/embedded in paraffin. […]

The target of test [2] is T1, human cartilage explants. Nature of the test: Binding of DTPA-IrDye 800CW conjugated antibodies to human cartilage with or without trypsin (Odyssey CLX imaging). Particulars: 4 µg/ml, 4 H, 37°C; preserved regions of OA cartilage; Figure 9. Here is the method: From surgical waste material obtained after total knee arthroplasty (Patient number SMK1186), human cartilage from the macroscopically preserved regions was isolated with a surgical blade, and 6 mm punches were made using a biopsy punch. Human cartilage explants were overnight incubated in DMEM/F12 without FBS supplemented with 10.000 U/mL penicillin/streptomycin at 37°C with 5% CO2. Half of the explants were incubated for 1 H with 2.5% Trypsin-EDTA in PBS at 37°C on a roller in a 50 ml falcon tube. The other half was incubated under the same conditions in PBS. The trypsin-EDTA was replaced by 1% FBS in PBS (to block the enzymatic activity of trypsin), in which the explants were incubated for 15 min. Cartilage explants were washed with PBS (3x 5 min). Three explants/condition were divided over sterile FACS tubes and exposed 4 µg/ml DTPA-IrDye 800CW isotype (2.201a) (substitution ratio IrDye 800CW= 1.54) or DTPA-IrDye 800CW anti-COLL II antibody (MQ4.112 hz3_1) (substitution ratio IrDye 800CW= 1.83) in DMEM/F12 media supplemented with 0.5% BSA (final volume was 1 ml) for 4 H on a roller at 37°C. […]
The explants were transferred to the bottom of wells of a 96-well plate to image with the Odyssey CLX near infrared imaging system. The fluorescent signal was measured in manually drawn ROI around the cartilage explants which was corrected for background signal by the software. […]

T1 sequence (P02458 182-1241 limits assumed): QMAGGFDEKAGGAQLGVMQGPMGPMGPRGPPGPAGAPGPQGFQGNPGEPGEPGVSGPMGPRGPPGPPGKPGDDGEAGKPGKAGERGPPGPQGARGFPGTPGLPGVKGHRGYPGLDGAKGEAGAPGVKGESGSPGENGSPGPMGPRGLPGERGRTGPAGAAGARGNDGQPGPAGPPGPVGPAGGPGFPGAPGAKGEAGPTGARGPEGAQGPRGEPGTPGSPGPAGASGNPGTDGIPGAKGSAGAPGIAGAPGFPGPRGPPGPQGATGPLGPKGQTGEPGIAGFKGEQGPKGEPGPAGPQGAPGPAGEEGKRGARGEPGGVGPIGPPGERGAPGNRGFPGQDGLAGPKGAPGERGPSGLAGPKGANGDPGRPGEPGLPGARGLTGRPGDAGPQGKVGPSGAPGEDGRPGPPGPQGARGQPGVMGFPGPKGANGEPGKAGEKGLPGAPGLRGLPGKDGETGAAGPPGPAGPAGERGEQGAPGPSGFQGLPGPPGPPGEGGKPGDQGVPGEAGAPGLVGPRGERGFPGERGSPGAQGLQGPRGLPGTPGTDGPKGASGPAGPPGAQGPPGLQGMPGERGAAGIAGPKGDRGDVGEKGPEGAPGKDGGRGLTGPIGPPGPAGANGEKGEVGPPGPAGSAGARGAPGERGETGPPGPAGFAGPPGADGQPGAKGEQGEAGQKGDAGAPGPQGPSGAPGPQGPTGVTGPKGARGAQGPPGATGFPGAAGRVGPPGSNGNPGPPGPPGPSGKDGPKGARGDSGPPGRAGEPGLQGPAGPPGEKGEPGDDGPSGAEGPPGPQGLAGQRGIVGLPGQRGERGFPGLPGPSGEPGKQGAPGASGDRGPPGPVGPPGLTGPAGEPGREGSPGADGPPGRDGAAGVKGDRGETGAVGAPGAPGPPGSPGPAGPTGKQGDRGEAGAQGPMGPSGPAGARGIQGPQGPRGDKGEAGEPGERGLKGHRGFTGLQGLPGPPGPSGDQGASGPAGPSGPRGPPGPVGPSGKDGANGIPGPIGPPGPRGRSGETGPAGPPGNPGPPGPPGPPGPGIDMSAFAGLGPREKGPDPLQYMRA
T2 sequence (P02458 182-1241 limits assumed): as above

B1: [^111In]In-DTPA-MQ4.112hz_3_1: MQ4.112hz_3_1 conjugated with DTPA and labeled with 111In (conjugate)
VH: DVQLQESGPGLVKPSETLSLTCAVSGYSITSDYYWHWIRQFPGKGLEWMGYISYDGSNNYNPSLKSRVTISVDTSKNQFSLKLSSVTAADTAVYYCARDDDAMDYWGQGTLVTVSS
VL: DIQMTQSPSSLSASVGDRVTITCRASQDISNYLNWYQQKPGKAPKLLIYYTSRLHSGVPSRFSGSGSGTDFTFTISSLQPEDIATYYCQQGNTLPPTFGQGTKVEIK
As to B1, the “cartilage associated radioactivity corrected for their weight, trypsin-damaged human cartilage compared to non-treated explants” value in the test with human cartilage explants [1] (4 µg/ml, 1.5 H, 37°C) is on record as “higher”. The “cartilage associated radioactivity/gram in trypsin-damaged human cartilage compared to isotype” value in the test with human cartilage explants [1] (p<0.001, One-way ANOVA) is “higher”.

B2: DTPA-IrDye 800CW anti-COLL II (MQ4.112 hz3_1): MQ4.112hz_3_1 dually conjugated with DTPA and IrDye 800CW, substitution ratio IrDye 800CW= 1.83 (conjugate)
VH: DVQLQESGPGLVKPSETLSLTCAVSGYSITSDYYWHWIRQFPGKGLEWMGYISYDGSNNYNPSLKSRVTISVDTSKNQFSLKLSSVTAADTAVYYCARDDDAMDYWGQGTLVTVSS
VL: DIQMTQSPSSLSASVGDRVTITCRASQDISNYLNWYQQKPGKAPKLLIYYTSRLHSGVPSRFSGSGSGTDFTFTISSLQPEDIATYYCQQGNTLPPTFGQGTKVEIK
As for B2, in the test with human cartilage (Figure 11 bottom, compared with SafO staining), the “localization of the fluorescent signal in sections of the explants” value is on record as “localizes on the spots where visible cartilage damage is present”. In addition, the “binding (fluorescent signal) to cartilage when OA-damage increases” value in the test with human cartilage (macroscopically preserved, medium damage and severe damaged regions, 4 µg/ml, 4 H, Figure 11, listed as DTPA-IrDye 800CW anti-COLL II antibody) was “binds more; also recorded: increases”. Further, the “binding (fluorescent signal) to trypsin-induced damaged human cartilage explants compared to untreated explants” value with human cartilage explants [2] is listed as “increased binding; also recorded: increases”.
